Measured values as given in the supplement of paper PMC6757056.
± gives the standard deviation of the averaged measurements.

B1: library; a variant is named by its letters at N, in order (parent)
chain: GCUGUCACCGGUGUAUUACCCUAGUGGUCGACCGGUCUGAUGAGUCUNNNNNNAGACGAAACAGC

How the values were obtained:
hypoxanthine [1] = variants of: B1; test: FACS-Seq fitted mean relative fluorescence mCherry/BFP without ligand (log10 relative fluorescence); ligand: hypoxanthine (xanthine aptamer); higher = higher reporter protein expression; settings: HEK293T, ligand present: no
How it was run: (§1)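 To measure fluorescence, a normal distribution was fitted to read counts across sorted bins. The reporter libraries were HEK293T cells transduced by lentivirus with mCherry under ribozyme-switch control and an EF1α-BFP marker, enriched and then kept with or without ligand for 48 h. Sorting used 6 mCherry/BFP bins, and bin genomic DNA was PCR-amplified and sequenced on MiSeq. Fitted means of log10(mCherry/BFP) were scaled to five spiked-in control ribozymes.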

hypoxanthine [2] = variants of: B1; test: normalized RNA/DNA level with ligand (relative to sTRSVctl = 100) (log10 (% of sTRSVctl)); ligand: hypoxanthine (xanthine aptamer); higher = less ribozyme self-cleavage, higher mRNA level; settings: ligand concentration (+) RNA-Seq: 5 mM, HEK293T, reporter: mCherry (pCS4076), ligand present: yes
How it was run: (§2)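 For each 6-well well, 4 µg of library plasmid encoding mCherry-linked ribozyme switches, or eGFP-linked ones in some ligand experiments, was transfected into HEK293T. Any ligand was added 1 h before transfection, and RNA was extracted with EDTA 72 h after it, then reverse-transcribed, amplified, barcoded and sequenced. RNA level was obtained by dividing RNA reads by DNA reads, normalizing to a spiked-in non-cleaving sequence or to the top sequences, then scaling and log-transforming. The top set was 25 sequences, scaling was ×100 with log10, and ≥100 DNA reads were required.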

hypoxanthine [3] = variants of: B1; test: normalized RNA/DNA level without ligand (relative to sTRSVctl = 100) (log10 (% of sTRSVctl)); ligand: hypoxanthine (xanthine aptamer); higher = less ribozyme self-cleavage, higher mRNA level; settings: HEK293T, reporter: mCherry (pCS4076), ligand present: no
How it was run: as §2

hypoxanthine [4] = variants of: B1; test: FACS-Seq fitted mean relative fluorescence mCherry/BFP with ligand (log10 relative fluorescence); ligand: hypoxanthine (xanthine aptamer); ligand concentration (+) FACS-Seq: 5 mM; higher = higher reporter protein expression; settings: HEK293T, ligand present: yes
How it was run: as §1

## GCUGUCACCGGUGUAUUACCCUAGUGGUCGACCGGUCUGAUGAGUCUUGAGCGAGACGAAACAGC [UGAGCG]
Hypoxanthine [1]
  FACS-Seq fitted mean (log10): 0.3069 ± 0.0029
Hypoxanthine [2]
  normalized RNA/DNA level with ligand (log10): 1.9 ± 0.049
Hypoxanthine [3]
  normalized RNA/DNA level without ligand (log10): 1.7 ± 0.043
Hypoxanthine [4]
  FACS-Seq fitted mean (log10): 0.323 ± 0.026

## GCUGUCACCGGUGUAUUACCCUAGUGGUCGACCGGUCUGAUGAGUCUUGAGCCAGACGAAACAGC [UGAGCC]
Hypoxanthine [1]
  FACS-Seq fitted mean (log10): 0.846 ± 0.017
Hypoxanthine [2]
  normalized RNA/DNA level with ligand (log10): 2.003 ± 0.02
Hypoxanthine [3]
  normalized RNA/DNA level without ligand (log10): 1.94 ± 0.051
Hypoxanthine [4]
  FACS-Seq fitted mean (log10): 0.805 ± 0.11

## GCUGUCACCGGUGUAUUACCCUAGUGGUCGACCGGUCUGAUGAGUCUCGAGCAAGACGAAACAGC [CGAGCA]
Hypoxanthine [1]
  FACS-Seq fitted mean (log10): 0.378 ± 0.011
Hypoxanthine [2]
  normalized RNA/DNA level with ligand (log10): 1.942 ± 0.0082
Hypoxanthine [3]
  normalized RNA/DNA level without ligand (log10): 1.716 ± 0.012
Hypoxanthine [4]
  FACS-Seq fitted mean (log10): 0.543 ± 0.087

## GCUGUCACCGGUGUAUUACCCUAGUGGUCGACCGGUCUGAUGAGUCUAGAGCGAGACGAAACAGC [AGAGCG]
Hypoxanthine [1]
  FACS-Seq fitted mean (log10): 0.488 ± 0.026
Hypoxanthine [2]
  normalized RNA/DNA level with ligand (log10): 1.81 ± 0.024
Hypoxanthine [3]
  normalized RNA/DNA level without ligand (log10): 1.401 ± 0.002
Hypoxanthine [4]
  FACS-Seq fitted mean (log10): 0.431 ± 0.067

## GCUGUCACCGGUGUAUUACCCUAGUGGUCGACCGGUCUGAUGAGUCUGGACUGAGACGAAACAGC [GGACUG]
Hypoxanthine [1]
  FACS-Seq fitted mean (log10): 0.544 ± 0.086
Hypoxanthine [2]
  normalized RNA/DNA level with ligand (log10): 1.888 ± 0.012
Hypoxanthine [3]
  normalized RNA/DNA level without ligand (log10): 1.58 ± 0.041
Hypoxanthine [4]
  FACS-Seq fitted mean (log10): 0.601 ± 0.1

## GCUGUCACCGGUGUAUUACCCUAGUGGUCGACCGGUCUGAUGAGUCUCGAGAGAGACGAAACAGC [CGAGAG]
Hypoxanthine [1]
  FACS-Seq fitted mean (log10): 0.304 ± 0.055
Hypoxanthine [2]
  normalized RNA/DNA level with ligand (log10): 1.9 ± 0.078
Hypoxanthine [3]
  normalized RNA/DNA level without ligand (log10): 1.71 ± 0.032
Hypoxanthine [4]
  FACS-Seq fitted mean (log10): 0.258 ± 0.014

## GCUGUCACCGGUGUAUUACCCUAGUGGUCGACCGGUCUGAUGAGUCUCGAGAAAGACGAAACAGC [CGAGAA]
Hypoxanthine [1]
  FACS-Seq fitted mean (log10): 0.492 ± 0.014
Hypoxanthine [2]
  normalized RNA/DNA level with ligand (log10): 1.907 ± 0.0062
Hypoxanthine [3]
  normalized RNA/DNA level without ligand (log10): 1.58 ± 0.0075
Hypoxanthine [4]
  FACS-Seq fitted mean (log10): 0.65 ± 0.015

## GCUGUCACCGGUGUAUUACCCUAGUGGUCGACCGGUCUGAUGAGUCUGGAGACAGACGAAACAGC [GGAGAC]
Hypoxanthine [1]
  FACS-Seq fitted mean (log10): -0.358 ± 0.15
Hypoxanthine [2]
  normalized RNA/DNA level with ligand (log10): 1.86 ± 0.066
Hypoxanthine [3]
  normalized RNA/DNA level without ligand (log10): 1.75 ± 0.086
Hypoxanthine [4]
  FACS-Seq fitted mean (log10): 0.13 ± 0.024

## GCUGUCACCGGUGUAUUACCCUAGUGGUCGACCGGUCUGAUGAGUCUGGAGAAAGACGAAACAGC [GGAGAA]
Hypoxanthine [1]
  FACS-Seq fitted mean (log10): 0.538 ± 0.019
Hypoxanthine [2]
  normalized RNA/DNA level with ligand (log10): 1.92 ± 0.022
Hypoxanthine [3]
  normalized RNA/DNA level without ligand (log10): 1.68 ± 0.053
Hypoxanthine [4]
  FACS-Seq fitted mean (log10): 0.643 ± 0.034

## GCUGUCACCGGUGUAUUACCCUAGUGGUCGACCGGUCUGAUGAGUCUGGAGAGAGACGAAACAGC [GGAGAG]
Hypoxanthine [1]
  FACS-Seq fitted mean (log10): 0.274 ± 0.052
Hypoxanthine [2]
  normalized RNA/DNA level with ligand (log10): 1.81 ± 0.058
Hypoxanthine [3]
  normalized RNA/DNA level without ligand (log10): 1.3 ± 0.017
Hypoxanthine [4]
  FACS-Seq fitted mean (log10): 0.507 ± 0.023

## GCUGUCACCGGUGUAUUACCCUAGUGGUCGACCGGUCUGAUGAGUCUGGAGCAAGACGAAACAGC [GGAGCA]
Hypoxanthine [1]
  FACS-Seq fitted mean (log10): 0.654 ± 0.037
Hypoxanthine [2]
  normalized RNA/DNA level with ligand (log10): 1.946 ± 0.0077
Hypoxanthine [3]
  normalized RNA/DNA level without ligand (log10): 1.783 ± 0.0088
Hypoxanthine [4]
  FACS-Seq fitted mean (log10): 0.686 ± 0.1

## GCUGUCACCGGUGUAUUACCCUAGUGGUCGACCGGUCUGAUGAGUCUGGAGCGAGACGAAACAGC [GGAGCG]
Hypoxanthine [1]
  FACS-Seq fitted mean (log10): 0.171 ± 0.034
Hypoxanthine [2]
  normalized RNA/DNA level with ligand (log10): 1.93 ± 0.043
Hypoxanthine [3]
  normalized RNA/DNA level without ligand (log10): 1.49 ± 0.04
Hypoxanthine [4]
  FACS-Seq fitted mean (log10): 0.456 ± 0.023

## GCUGUCACCGGUGUAUUACCCUAGUGGUCGACCGGUCUGAUGAGUCUGGAGCUAGACGAAACAGC [GGAGCU]
Hypoxanthine [1]
  FACS-Seq fitted mean (log10): 0.211 ± 0.041
Hypoxanthine [2]
  normalized RNA/DNA level with ligand (log10): 1.956 ± 0.0072
Hypoxanthine [3]
  normalized RNA/DNA level without ligand (log10): 1.96 ± 0.044
Hypoxanthine [4]
  FACS-Seq fitted mean (log10): -0.117 ± 0.033

## GCUGUCACCGGUGUAUUACCCUAGUGGUCGACCGGUCUGAUGAGUCUUGAGAGAGACGAAACAGC [UGAGAG]
Hypoxanthine [1]
  FACS-Seq fitted mean (log10): 0.372 ± 0.012
Hypoxanthine [2]
  normalized RNA/DNA level with ligand (log10): 1.87 ± 0.03
Hypoxanthine [3]
  normalized RNA/DNA level without ligand (log10): 1.67 ± 0.04
Hypoxanthine [4]
  FACS-Seq fitted mean (log10): 0.364 ± 0.023

## GCUGUCACCGGUGUAUUACCCUAGUGGUCGACCGGUCUGAUGAGUCUUGAGAUAGACGAAACAGC [UGAGAU]
Hypoxanthine [1]
  FACS-Seq fitted mean (log10): 0.648 ± 0.051
Hypoxanthine [2]
  normalized RNA/DNA level with ligand (log10): 1.887 ± 0.017
Hypoxanthine [3]
  normalized RNA/DNA level without ligand (log10): 1.713 ± 0.0063
Hypoxanthine [4]
  FACS-Seq fitted mean (log10): 0.743 ± 0.033

## GCUGUCACCGGUGUAUUACCCUAGUGGUCGACCGGUCUGAUGAGUCUUGAGAAAGACGAAACAGC [UGAGAA]
Hypoxanthine [1]
  FACS-Seq fitted mean (log10): 0.552 ± 0.021
Hypoxanthine [2]
  normalized RNA/DNA level with ligand (log10): 1.86 ± 0.019
Hypoxanthine [3]
  normalized RNA/DNA level without ligand (log10): 1.74 ± 0.018
Hypoxanthine [4]
  FACS-Seq fitted mean (log10): 0.638 ± 0.083

## GCUGUCACCGGUGUAUUACCCUAGUGGUCGACCGGUCUGAUGAGUCUAGAGAUAGACGAAACAGC [AGAGAU]
Hypoxanthine [1]
  FACS-Seq fitted mean (log10): 0.123 ± 0.09
Hypoxanthine [2]
  normalized RNA/DNA level with ligand (log10): 1.85 ± 0.052
Hypoxanthine [3]
  normalized RNA/DNA level without ligand (log10): 1.731 ± 0.0098
Hypoxanthine [4]
  FACS-Seq fitted mean (log10): -0.481 ± 0.049

## GCUGUCACCGGUGUAUUACCCUAGUGGUCGACCGGUCUGAUGAGUCUAGAGAAAGACGAAACAGC [AGAGAA]
Hypoxanthine [1]
  FACS-Seq fitted mean (log10): 0.479 ± 0.04
Hypoxanthine [2]
  normalized RNA/DNA level with ligand (log10): 1.882 ± 0.0051
Hypoxanthine [3]
  normalized RNA/DNA level without ligand (log10): 1.69 ± 0.047
Hypoxanthine [4]
  FACS-Seq fitted mean (log10): 0.467 ± 0.0095

## GCUGUCACCGGUGUAUUACCCUAGUGGUCGACCGGUCUGAUGAGUCUAGAGAGAGACGAAACAGC [AGAGAG]
Hypoxanthine [1]
  FACS-Seq fitted mean (log10): 0.482 ± 0.014
Hypoxanthine [2]
  normalized RNA/DNA level with ligand (log10): 1.75 ± 0.036
Hypoxanthine [3]
  normalized RNA/DNA level without ligand (log10): 1.32 ± 0.069
Hypoxanthine [4]
  FACS-Seq fitted mean (log10): 0.443 ± 0.038

## GCUGUCACCGGUGUAUUACCCUAGUGGUCGACCGGUCUGAUGAGUCUAGACUCAGACGAAACAGC [AGACUC]
Hypoxanthine [1]
  FACS-Seq fitted mean (log10): 0.486 ± 0.012
Hypoxanthine [2]
  normalized RNA/DNA level with ligand (log10): 1.944 ± 0.016
Hypoxanthine [3]
  normalized RNA/DNA level without ligand (log10): 1.94 ± 0.034
Hypoxanthine [4]
  FACS-Seq fitted mean (log10): 0.646 ± 0.01

## GCUGUCACCGGUGUAUUACCCUAGUGGUCGACCGGUCUGAUGAGUCUAGACUUAGACGAAACAGC [AGACUU]
Hypoxanthine [1]
  FACS-Seq fitted mean (log10): 0.58 ± 0.039
Hypoxanthine [2]
  normalized RNA/DNA level with ligand (log10): 1.946 ± 0.008
Hypoxanthine [3]
  normalized RNA/DNA level without ligand (log10): 1.9 ± 0.021
Hypoxanthine [4]
  FACS-Seq fitted mean (log10): 0.5558 ± 0.0047
